Laboratory results reported in publication PMC2891049.
Read-outs that look alike come from different tables or passages of the source.

T1: C-reactive protein (UniProt P02741 19-224)
T1 sequence: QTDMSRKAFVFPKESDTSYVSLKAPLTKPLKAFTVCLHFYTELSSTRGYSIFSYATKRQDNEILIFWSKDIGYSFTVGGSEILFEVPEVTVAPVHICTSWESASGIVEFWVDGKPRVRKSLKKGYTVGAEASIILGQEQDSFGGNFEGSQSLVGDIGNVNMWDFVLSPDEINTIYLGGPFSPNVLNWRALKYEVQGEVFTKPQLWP

B1: MB-P (PDGF-BB sensing aptamer) (structured_DNA)
DNA: GATGTCCACGAGGTCTCTGCGGCATCAACAATCTCGAATTTTTTACTCAGGGCACTGCAAGCAATTGTGGTCCCAATGGGCTGAGTATCGTACGCTGCAGGTCGAC
B2: MB-T (thrombin sensing aptamer) (structured_DNA)
DNA: GATGTCCACGAGGTCTCTATTGCATTCGCACTTCCGATTTTTTCAGTCCGTGGTAGGGCAGGTTGGGGTGACTCGTACGCTGCAGGTCGAC

Assays:
[1] = molecular target: T1, C-reactive protein; experiment: pull-down
[2] = molecular target: T1, C-reactive protein; experiment: pull-down; remark: listed apart in the source

Binder | binding result [1] | binding result [2]
B1 | no binding | –
B2 | – | no binding
